According to patent US20130059311A1, “METHOD FOR THE IDENTIFICATION OF MEMORY MODULATING COMPOUNDS BY ASSESSING KIBRA EXPRESSION” (SYGNIS BIOSCIENCE GMBH & CO KG, priority 2010, published 2013):

Assays:
PKC zeta = biological target: T1, PKC zeta (Homo sapiens, UniProt Q05513); assay: PKC zeta kinase activity assay on pulldowns from COS cells; type: biochemical; details: pulldowns from COS cells over-expressing PKC zeta and KIBRA vs PKC zeta alone
T1 construct: expressed in transfected cells; host or cells: COS cells
T1 sequence (Q05513 1-592): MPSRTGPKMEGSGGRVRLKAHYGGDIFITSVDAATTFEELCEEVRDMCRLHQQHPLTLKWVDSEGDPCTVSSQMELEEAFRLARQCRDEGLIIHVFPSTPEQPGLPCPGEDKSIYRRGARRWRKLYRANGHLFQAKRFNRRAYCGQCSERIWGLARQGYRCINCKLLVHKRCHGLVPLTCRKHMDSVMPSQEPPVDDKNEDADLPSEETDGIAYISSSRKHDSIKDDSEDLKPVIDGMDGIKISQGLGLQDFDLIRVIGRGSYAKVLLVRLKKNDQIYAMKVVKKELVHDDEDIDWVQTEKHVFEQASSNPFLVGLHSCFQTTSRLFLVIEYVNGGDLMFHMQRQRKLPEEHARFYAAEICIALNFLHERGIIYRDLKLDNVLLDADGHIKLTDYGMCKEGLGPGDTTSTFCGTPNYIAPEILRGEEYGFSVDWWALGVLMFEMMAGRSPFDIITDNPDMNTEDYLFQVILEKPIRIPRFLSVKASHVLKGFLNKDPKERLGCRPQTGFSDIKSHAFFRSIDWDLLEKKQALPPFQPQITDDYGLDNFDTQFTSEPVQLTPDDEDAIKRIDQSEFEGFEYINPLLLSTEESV
Description: To investigate the impact of KIBRA on PKC zeta activity itself, PKC zeta activity were determined in an enzyme assay. The kinase activity in the assay is detected by the phosphorylation of a substrate peptide by an antibody reaction according to manufactures instruction (HTScan PKC zeta kinase assay kit, Cell Signaling Technology Inc., Danvers, Mass., USA). The antibody is detected by a lanthanide-labeled secondary antibody, which can be measured in a fluorescent plate reader.
In order to analyze PKC zeta activity with and without KIBRA, COS cells over-expressing PKC zeta alone or in combination with KIBRA were lysed and PKC zeta was pulled down with respective PKC zeta binding beads.
Previous studies have shown that PKC zeta co-immunoprecipitates with KIBRA, and immunoreactive bands for KIBRA in the western blot analysis confirmed that PKC zeta pulldowns include KIBRA protein from cells also over-expressing KIBRA. When pulldowns from cells over-expressing PKC zeta were compared to cells over-expressing both PKC zeta and KIBRA for the phosphorylation of substrate peptide in the activity assay, a strong increase of PKC zeta activity by 50% was observed. […] Analysis of the kinase activity of the truncated form confirmed that the phosphorylation of the peptide was only mediated by PKC zeta and no other kinase attached to the beads.

[1] = test system: KIBRA (KIdney BRAin protein)

Row | Substance | increase of PKC zeta activity (PKC zeta) | PKC zeta kinase activity (phosphorylation of substrate peptide, HTScan PKC zeta kinase assay kit) of PKC zeta pulldowns [1]
1 | KIBRA: KIBRA protein over-expressed in COS cells together with PKC zeta | 50% | 
2 | protein kinase C zeta |  | a strong increase of PKC zeta activity by 50% was observed
